{"source": "patent US11549134B2", "about": "“Modified amadoriase and method for producing the same, agent for improving surfactant resistance of amadoriase and composition for measuring HbA1c using the same” (Kikkoman Corporation, priority 2013, dated 2023)", "molecules": {"B1": {"name": "CFP-T7: amadoriase derived from the genus Coniochaeta, SEQ ID NO: 1; triple variant with mutations at positions 272, 302 and 388 (protein, listed as Coniochaeta sp.)", "chain": "MTSNRADTRVIVVGGGGTIGSSTALHLVRSGYAPANITVLDTFEIPSAQSAGHDLNKIMGIRLRNKVDLQMSLEARQMWKEDELFQPFFHNTGRMDCEHTPEGIEDLKKQYQALHDAGAGLEKTHAWLDNEDEILSKMPLLQRDQIQGWKAIWSQDGGWLAAAKAINAIGQFLKERGVKFGFGGAGSFKQPLFDDEGTTCIGVETADGTKYYADKVVLAAGAWSPTLVDLEDQCCSKAWVYAHIQLTPEEAAEYKGVPVVYNGEFGFFFEPDEFGVIKVCDEFPGFSRFKEHQPYGAPSPKRISVPRSHAKHPTDTYPDASEVSIKKAIATFLPRFQDKELFNRALCWCTDTADAALLMCEHPKWKNFILATGDSGHSFKILPNVGKYVVELIEGRLPEEMAYQWRWRPGGDALKSRRAAPPKDLADMPGWKHDPKL"}}, "key": {"[1]": {"assay": "Surfactant resistance (residual activity) of CFP-D multiple variants, 0.04% CTAC", "assay_type": "biochemical", "details": "30°C, 5 minutes, crude enzyme", "protocol": "An amadoriase crude enzyme solution or an amadoriase purified sample is diluted with a 30 mM MES/21 mM Tris buffer solution (pH6.5) so as to have a concentration of about 1.0 U/ml. To this, CTAC (for example, manufactured by Tokyo Kasei Kogyo Co., Ltd.) is added so as to obtain a final concentration 0.01% (w/v) or 0.04%. The resultant mixture is heated at 30° C. for 5 minutes. After heating, the mixture is diluted double with a 10 mM phosphate buffer (pH7.0) containing 0.15% BSA to prepare a sample. The enzyme activities of the sample before and after a surfactant treatment are measured by the method described in Section B above. The ratio of activity of the sample after the surfactant treatment relative to the activity of the sample before the surfactant treatment (regarded as 100), i.e., the residual activity (%), is obtained. In this manner, surfactant resistance is evaluated. […]"}, "CFP-T7": {"system": "CFP-T7", "assay": "Surfactant resistance of amadoriase during addition of each stabilizer (CFP-T7)", "assay_type": "biochemical, genus Coniochaeta", "details": "Stabilizer None, 500 mM HEPES (pH 7.0), 0.01% CTAC", "protocol": "In the above surfactant resistance measuring method, various stabilizers are added and the residual activity of an amadoriase is measured in order to evaluate the effect of the stabilizers. […] The concentration sufficient to provide a buffer capacity to a solution refers to the concentration at which pH is maintained within a predetermined range (for example pH5 to 10, pH6 to 8) without having pH change due to other reagents added to the solution. A concentration insufficient to provide a buffer capacity to a solution refers to the concentration at which pH changes by addition of other reagents to the solution and pH falls outside a particular range. These concentrations vary depending upon the type and amount of other reagents to be added to a solution; however, a person skilled in the art can appropriately determine the concentration by conventional methods. Other conditions and procedure can be the same as in the above surfactant resistance measuring method.\nIt was studied whether or not the addition of any of various stabilizers enhanced the surfactant resistance of an amadoriase. Phosphoric acid, a tricarboxylic acid (e.g., citric acid), a dicarboxylic acid (e.g., malic acid, maleic acid, citraconic acid, malonic acid, glutaric acid, or tartaric acid), a monpcarboxylic acid (e.g., acetic acid), MES, MOPS, MOPSO, or ammonium sulfate was used as a stabilizer. As a Comparative Example, CHES was used. To prevent change in pH when adding the stabilizer, 500 mM HEPES (pH 7.0) was used as a buffer solution; CFP-T7 purified as described above was used as a sample; the final concentration of CTAC was set at 0.01%; and any of the stabilizers was further added to evaluate the surfactant resistance of CFP-T7 according to the measurement method for surfactant resistance in Example 1. Using a 500 mM HEPES (pH 7.0) buffering agent and CFP-D2 purified as described above as a sample, any of the stabilizers was further added, and the surfactant resistance of CFP-D2 was evaluated according to the measurement method for surfactant resistance in Example 1 although under more harsh surfactant treatment conditions in which the final concentration of CTAC was set at 0.08% and the treatment temperature at 37° C."}}}
{"molecule": "B1", "values": [{"measurement": "Residual Activity(%)", "setting": "[1]", "result": 2.27, "unit": "%"}, {"measurement": "CFP-T7 Residual Activity (%)", "setting": "CFP-T7; Table 9-1", "result": 4.7, "unit": "%"}, {"measurement": "CFP-T7 Residual Activity (%)", "setting": "CFP-T7; Table 9-2", "result": 3.1, "unit": "%"}]}
